Measured values as given in patent US8058228B2, “Leptin peptide antagonists” (Boston Biomedical Research Institute, priority 2004, dated 2011).

Target: T1, OB-R (Homo sapiens, UniProt P48357)
T1 construct: After confirming via Western that the primary EEC and ESC and endometrial cell lines utilized herein had OB-R; endogenous in cells; host or cells: primary human EEC and ESC; Ishikawa (ECACC 9832301) and HES cell lines
T1 sequence (P48357 22-1165): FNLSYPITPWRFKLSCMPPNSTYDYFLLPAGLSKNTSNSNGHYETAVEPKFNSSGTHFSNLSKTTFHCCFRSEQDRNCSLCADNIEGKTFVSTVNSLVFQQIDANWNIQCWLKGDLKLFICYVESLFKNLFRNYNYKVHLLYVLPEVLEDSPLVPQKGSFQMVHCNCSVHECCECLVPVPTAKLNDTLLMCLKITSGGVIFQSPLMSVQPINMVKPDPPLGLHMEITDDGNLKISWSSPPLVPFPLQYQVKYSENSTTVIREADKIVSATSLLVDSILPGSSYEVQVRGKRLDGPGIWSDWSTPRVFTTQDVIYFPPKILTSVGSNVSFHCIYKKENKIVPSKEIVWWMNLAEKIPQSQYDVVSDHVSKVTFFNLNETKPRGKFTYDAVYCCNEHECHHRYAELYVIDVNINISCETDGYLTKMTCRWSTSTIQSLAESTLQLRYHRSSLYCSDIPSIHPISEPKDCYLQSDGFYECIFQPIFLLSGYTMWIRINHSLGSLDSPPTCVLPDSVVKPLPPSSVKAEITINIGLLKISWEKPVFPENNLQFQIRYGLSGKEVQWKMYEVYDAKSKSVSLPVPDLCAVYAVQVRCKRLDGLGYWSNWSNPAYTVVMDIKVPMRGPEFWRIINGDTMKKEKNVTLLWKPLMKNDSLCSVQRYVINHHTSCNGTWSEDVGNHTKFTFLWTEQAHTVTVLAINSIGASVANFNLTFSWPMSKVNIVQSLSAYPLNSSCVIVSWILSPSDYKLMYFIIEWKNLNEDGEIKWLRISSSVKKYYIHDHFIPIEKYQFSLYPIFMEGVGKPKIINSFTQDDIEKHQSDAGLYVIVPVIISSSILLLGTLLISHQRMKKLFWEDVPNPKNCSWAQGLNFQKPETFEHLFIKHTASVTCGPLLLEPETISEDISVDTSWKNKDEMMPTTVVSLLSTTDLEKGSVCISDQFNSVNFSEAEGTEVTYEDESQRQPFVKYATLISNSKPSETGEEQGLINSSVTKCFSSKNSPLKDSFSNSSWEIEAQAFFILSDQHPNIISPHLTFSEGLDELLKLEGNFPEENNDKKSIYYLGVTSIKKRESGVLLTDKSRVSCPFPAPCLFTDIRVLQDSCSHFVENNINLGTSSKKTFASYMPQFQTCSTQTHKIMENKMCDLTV
Test: IL-1β and IL-1Ra levels in conditioned medium of human endometrial epithelial cells (ELISA)
Type: cell-based
Details: EEC, leptin 10 nM, 24 h; for effect on leptin-induced increase in IL-1Ra levels / effect on leptin-induced increase in IL-1β levels: LPA-2 30 μM
Protocol: Primary human endometrial cells (ESC and EEC) were cultured for 5-9 days in DMEM-F12 medium containing 5% fetal bovine serum (FBS), 5 μg/ml insulin, 1% amphopthericin B, 100 μg/ml streptomycin and 100 U/ml penicillin until they were 80% confluent. Two types of endometrial epithelial cell lines, HES (originally derived from a benign proliferative endometrium) and Ishikawa (human endometrial epithelial adenocarcinoma, ECACC 9832301, Wiltshire, England) were cultured under the same conditions described above. The cells were washed twice with 100 mM phosphate saline buffer (PBS), pH 7.2 and cultured for additional 2 days in the same medium but without FBS (basal medium). Cells were washed as described before and cultured in basal medium containing leptin (0, 3, 10 or 62 nM) or IL-1β (0.6, 3 and 10 nM).
The anti-OB-R antibody (10 and 20 μg/ml) and LPA-2, a specific inhibitor of OB-R (3, 120, 300 nM or 30 μM) were used to assess whether leptin-induced effects were regulated primarily by the OB-R. Non-specific species-matched IgGs to the OB-R antibody and a scrambled version of LPA-2 (LPA-2Sc) served as negative controls (Gonzalez and Leavis, Endocrine 21: 185-195 (2003)). Inhibitors of IL-1R were used (monoclonal antibody anti-IL-1R tl and IL-1Ra) to assess whether leptin activated IL-1 induced signaling pathways or just activated similar components responsible for LIF/LIF-R expression. Treatment with the cytokine, inhibitor or the two combined was implemented for 5, 15, 30 and 60 min, and 24 and 48 h. The cells were prepared for Western blot analysis. The conditioned media was collected, lyophilized and stored at −80° C. until analysis for LIF, IL-1β and IL-1Ra by ELISA could be performed. Duplicate wells were run for each treatment and the experiments repeated at least three times with different cell preparations.
Conditioned media from cells cultured under the experimental conditions described above were used to quantify the secretion of LIF, IL-1β and IL-1Ra by ELISA (Quantikine®, R&D Systems). The experiments were replicated three times and standards, controls, and samples were assayed in duplicate. Cytokine concentrations as determined by ELISA were within the range of the standard curve and were expressed in pg/ml/mg protein. The intra- and interassay coefficients of variation were between 5-8% and 8.5-10%, respectively. The lowest detectable concentration of each cytokine by ELISA was LIF (9 pg/ml), IL-1 (0.11 pg/ml) and IL-1Ra (15.6 pg/ml). These concentrations are similar to those reported by the manufacturer. LIF-ELISA is reported by the manufacturer to have a sensitivity of less than 8 pg/ml for both natural and recombinant human LIF and 100% specificity (no significant cross-reactivity or interference with a diversity of human and mouse cytokines and growth factors was observed). The performance characteristics for human IL-1β and IL-1Ra ELISAs reported are: 100% specificity, sensitivity 0.1 pg/ml and 14 pg/ml, respectively.

Row | effect on leptin-induced increase in IL-1Ra levels | effect on leptin-induced increase in IL-1β levels | IL-1Ra levels after leptin | IL-1β levels after leptin | Substance
1 | abrogated | abrogated |  |  | SRNVIQISNDLENLRDLLHVLAFSKS [LPA-2, 26 amino acid peptide, residues 70-95 of helix III of the human leptin molecule; leptin peptide antagonist]
2 | not affected | not affected |  |  | VAEVLNRSDLIQRISFSLDLNNSKLH [LPA-2Sc, scrambled version of LPA-2, negative control, reference compound]
3 |  |  | elevated levels | elevated levels | leptin: human recombinant leptin (R&D Systems), OB-R ligand used as stimulus
